Results as given in article PMC4987296 (The Journal of Cell Biology, 2016).

B1: DENND4C (natural protein)
chain: not shown
B2: PKD2 (natural protein)
chain: MVNSSRVQPQQPGDAKRPPAPRAPDPGRLMAGCAAVGASLAAPGGLCEQRGLEIEMQRIRQAAARDPPAGAAASPSPPLSSCSRQAWSRDNPGFEAEEEEEEVEGEEGGMVVEMDVEWRPGSRRSAASSAVSSVGARSRGLGGYHGAGHPSGRRRRREDQGPPCPSPVGGGDPLHRHLPLEGQPPRVAWAERLVRGLRGLWGTRLMEESSTNREKYLKSVLRELVTYLLFLIVLCILTYGMMSSNVYYYTRMMSQLFLDTPVSKTEKTNFKTLSSMEDFWKFTEGSLLDGLYWKMQPSNQTEADNRSFIFYENLLLGVPRIRQLRVRNGSCSIPQDLRDEIKECYDVYSVSSEDRAPFGPRNGTAWIYTSEKDLNGSSHWGIIATYSGAGYYLDLSRTREETAAQVASLKKNVWLDRGTRATFIDFSVYNANINLFCVVRLLVEFPATGGVIPSWQFQPLKLIRYVTTFDFFLAACEIIFCFFIFYYVVEEILEIRIHKLHYFRSFWNCLDVVIVVLSVVAIGINIYRTSNVEVLLQFLEDQNTFPNFEHLAYWQIQFNNIAAVTVFFVWIKLFKFINFNRTMSQLSTTMSRCAKDLFGFAIMFFIIFLAYAQLAYLVFGTQVDDFSTFQECIFTQFRIILGDINFAEIEEANRVLGPIYFTTFVFFMFFILLNMFLAIINDTYSEVKSDLAQQKAEMELSDLIRKGYHKALVKLKLKKNTVDDISESLRQGGGKLNFDELRQDLKGKGHTDAEIEAIFTKYDQDGDQELTEHEHQQMRDDLEKEREDLDLDHSSLPRPMSSRSFPRSLDDSEEDDDEDSGHSSRRRGSISSGVSYEEFQVLVRRVDRMEHSIGSIVSKIDAVIVKLEIMERAKLKRREVLGRLLDGVAEDERLGRDSEIHREQMERLVREELERWESDDAASQISHGLGTPVGLNGQPRPRSSRPSSSQSTEGMEGAGGNGSSNVHV

Experiments:
[1] = biological target: GFP-VPS26A (p.K297X) (human, UniProt O75436 1-296); assay: affinity purification with mass spectrometry
[2] = biological target: SNX27 PDZ domain in the presence of VPS26A (p.K93E) (rat | human, UniProt Q8K4V4;O75436, p.K93E); assay: ITC
[3] = biological target: SNX27 PDZ domain in the presence of VPS26A (p.M112V) (rat | human, UniProt Q8K4V4;O75436, p.M112V); assay: ITC
Sequence of SNX27 PDZ domain in the presence of VPS26A (p.M112V) (O75436 whole entry M112V, the tested form may be a part, one chain of several): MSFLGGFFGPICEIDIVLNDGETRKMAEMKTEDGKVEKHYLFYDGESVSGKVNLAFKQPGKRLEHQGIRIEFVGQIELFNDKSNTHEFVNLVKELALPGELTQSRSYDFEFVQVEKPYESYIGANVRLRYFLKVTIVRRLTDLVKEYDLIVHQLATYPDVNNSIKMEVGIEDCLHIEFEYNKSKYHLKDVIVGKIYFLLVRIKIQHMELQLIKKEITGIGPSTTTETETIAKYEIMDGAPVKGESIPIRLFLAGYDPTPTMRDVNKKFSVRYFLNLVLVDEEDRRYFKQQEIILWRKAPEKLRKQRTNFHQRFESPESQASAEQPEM

Sequence of GFP-VPS26A (p.K297X) (O75436 1-296): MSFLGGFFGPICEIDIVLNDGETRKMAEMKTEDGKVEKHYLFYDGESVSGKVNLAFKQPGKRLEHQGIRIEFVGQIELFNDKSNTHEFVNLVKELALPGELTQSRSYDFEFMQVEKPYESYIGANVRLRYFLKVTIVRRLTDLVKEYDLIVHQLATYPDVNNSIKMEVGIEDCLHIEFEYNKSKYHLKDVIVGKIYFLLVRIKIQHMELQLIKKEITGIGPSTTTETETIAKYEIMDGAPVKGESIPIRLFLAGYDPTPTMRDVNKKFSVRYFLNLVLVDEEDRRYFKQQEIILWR
Sequence of SNX27 PDZ domain in the presence of VPS26A (p.K93E) (O75436 whole entry K93E, the tested form may be a part, one chain of several): as the sequence (O75436 whole entry M112V, the tested form may be a part, one chain of several) above, with K93E, V112M counted along it

| Binder | SILAC enrichment ratio, mutant over wild-type GFP-VPS26A [1] | fold enhancement of binding over SNX27 PDZ domain alone [2] [fold] | fold enhancement of binding over SNX27 PDZ domain alone [3] [fold] |
| --- | --- | --- | --- |
| B1 | 6.55 |  |  |
| PPESESKV [Kir3.3 peptide (PPESESKV)] |  | > 10 | > 10 |
| B2 | 17.2 |  |  |
